Measured values taken from patent publication US12723078 (University of Texas, dated 2026).

What was measured:
[1] = target: T1, LILRB2 on reporter cells (UniProt Q8N423 22-597); assay: flow cytometry on 2B4 cells expressing the LILR, PE
T1 construct: whole, on cells; The construct is not described

[2] = target: T2, LILRA1 on reporter cells (UniProt O75019 17-489, limits assumed); assay: as above
T2 construct: whole, on cells

[3] = target: T3, LILRA2 on reporter cells (UniProt Q8N149 24-483); assay: as above
T3 construct: whole, on cells

[4] = target: T4, LILRB1 expressed on cell surface (human, UniProt Q8NHL6 24-650); assay: as above
T4 construct: One entry is used for LILRB1 on reporter cells and on NK cells; also called LILRB1 NFAT-GFP reporter cell; LILRB1 reporter cells

[5] = target: T5, LILRA5 on reporter cells (UniProt A6NI73 42-299); assay: as above
T5 construct: whole, on cells

[6] = target: T6, LILRB3 on reporter cells (UniProt O75022 24-631, limits assumed); assay: as above
T6 construct: whole, on cells

[7] = target: T7, LILRB5 on reporter cells (UniProt O75023 24-590, limits assumed); assay: as above
T7 construct: whole, on cells

[8] = target: T8, LILRA4 on reporter cells (UniProt P59901 24-499); assay: as above
T8 construct: whole, on cells

[9] = target: T9, recombinant human LILRB1 protein (human, UniProt Q8NHL6 24-461); assay: Octet RED96 (BLI), antibody on protein G biosensors, recombinant LILRB1 in solution, FIG. 2E (not Table 14)
T9 construct: ELISA and Octet methods say only 'recombinant LILRB1'; also called recombinant LILRB1; LILRB1 recombinant proteins

[10] = target: T10, LILRB4 on reporter cells (UniProt Q8NHJ6 22-448); assay: flow cytometry on LILR reporter cells, 0.5 µg/mL rabbit B1-176, anti-rabbit IgG PE
T10 construct: whole, on cells

[11] = target: T1, LILRB2 on reporter cells; assay: as above
[12] = target: T11, LILRA6 on reporter cells (UniProt Q6PI73 24-481); assay: as above
T11 construct: whole, on cells

[13] = target: T2, LILRA1 on reporter cells; assay: as above
[14] = target: T12, LILRA3 on reporter cells (UniProt Q8N6C8 24-439); assay: as above
T12 construct: whole, on cells

[15] = target: T3, LILRA2 on reporter cells; assay: as above
[16] = target: T4, LILRB1 expressed on cell surface; assay: as above
[17] = target: T5, LILRA5 on reporter cells; assay: as above
[18] = target: T6, LILRB3 on reporter cells; assay: as above
[19] = target: T7, LILRB5 on reporter cells; assay: as above
[20] = target: T8, LILRA4 on reporter cells; assay: as above
[21] = target: T13, LILRA1 (human, UniProt O75019); assay: ELISA
T13 construct: not the cell-surface form of MOLECULES; also called LILRA1 protein of the ELISA and Octet specificity tests

[22] = target: T14, LILRA2 (human, UniProt Q8N149); assay: ELISA
T14 construct: not the cell-surface form of MOLECULES; also called LILRA2 protein of the ELISA and Octet specificity tests

[23] = target: T15, LILRA4 (human, UniProt P59901); assay: ELISA
T15 construct: not the cell-surface form of MOLECULES; also called LILRA4 protein of the ELISA and Octet specificity tests

[24] = target: T16, LILRB5; assay: ELISA
T16 construct: not the cell-surface form of MOLECULES; also called LILRB5 protein of the ELISA and Octet specificity tests; not shown: Fc or tag of the recombinant LILRB5 construct, if any

[25] = target: T17, LILRA3 (human, UniProt Q8N6C8); assay: ELISA
T17 construct: not the cell-surface form of MOLECULES; also called LILRA3 protein of the ELISA and Octet specificity tests

[26] = target: T18, LILRB4 (human, UniProt Q8NHJ6); assay: ELISA
T18 construct: not the cell-surface form of MOLECULES; also called LILRB4 protein of the ELISA and Octet specificity tests

[27] = target: T9, recombinant human LILRB1 protein; assay: Octet RED96, LILRB1 at 100, 33.3, 11.1 and 3.7 nM

T7 sequence (O75023 24-590 limits assumed): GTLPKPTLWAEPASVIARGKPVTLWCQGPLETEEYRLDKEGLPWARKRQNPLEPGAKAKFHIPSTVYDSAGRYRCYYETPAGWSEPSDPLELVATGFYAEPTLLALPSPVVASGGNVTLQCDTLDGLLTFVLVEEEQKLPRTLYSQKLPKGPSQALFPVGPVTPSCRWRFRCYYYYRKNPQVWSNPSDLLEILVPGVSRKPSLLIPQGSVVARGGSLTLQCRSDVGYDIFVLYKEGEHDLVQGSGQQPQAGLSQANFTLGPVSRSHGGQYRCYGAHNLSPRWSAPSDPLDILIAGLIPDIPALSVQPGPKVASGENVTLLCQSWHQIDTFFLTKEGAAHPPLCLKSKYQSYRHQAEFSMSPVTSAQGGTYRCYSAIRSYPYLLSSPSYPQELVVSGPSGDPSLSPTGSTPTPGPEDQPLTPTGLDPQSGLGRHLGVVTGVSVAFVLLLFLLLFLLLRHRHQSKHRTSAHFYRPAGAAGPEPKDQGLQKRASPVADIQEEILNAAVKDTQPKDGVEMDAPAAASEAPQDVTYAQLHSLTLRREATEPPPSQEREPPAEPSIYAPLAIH
T2 sequence (O75019 17-489 limits assumed): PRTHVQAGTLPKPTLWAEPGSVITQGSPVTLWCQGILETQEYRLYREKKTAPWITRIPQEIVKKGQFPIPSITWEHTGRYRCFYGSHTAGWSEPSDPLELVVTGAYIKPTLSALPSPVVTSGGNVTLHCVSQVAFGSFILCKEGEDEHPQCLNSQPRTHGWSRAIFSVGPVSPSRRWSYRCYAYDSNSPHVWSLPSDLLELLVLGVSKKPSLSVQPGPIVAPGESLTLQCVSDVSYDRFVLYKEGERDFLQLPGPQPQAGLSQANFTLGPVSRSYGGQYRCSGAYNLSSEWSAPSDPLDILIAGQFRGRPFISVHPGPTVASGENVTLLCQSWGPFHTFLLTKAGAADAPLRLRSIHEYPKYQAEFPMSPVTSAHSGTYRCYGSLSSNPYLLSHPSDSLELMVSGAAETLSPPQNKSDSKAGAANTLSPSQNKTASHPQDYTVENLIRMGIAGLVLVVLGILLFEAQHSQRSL
T1 sequence (Q8N423 22-597): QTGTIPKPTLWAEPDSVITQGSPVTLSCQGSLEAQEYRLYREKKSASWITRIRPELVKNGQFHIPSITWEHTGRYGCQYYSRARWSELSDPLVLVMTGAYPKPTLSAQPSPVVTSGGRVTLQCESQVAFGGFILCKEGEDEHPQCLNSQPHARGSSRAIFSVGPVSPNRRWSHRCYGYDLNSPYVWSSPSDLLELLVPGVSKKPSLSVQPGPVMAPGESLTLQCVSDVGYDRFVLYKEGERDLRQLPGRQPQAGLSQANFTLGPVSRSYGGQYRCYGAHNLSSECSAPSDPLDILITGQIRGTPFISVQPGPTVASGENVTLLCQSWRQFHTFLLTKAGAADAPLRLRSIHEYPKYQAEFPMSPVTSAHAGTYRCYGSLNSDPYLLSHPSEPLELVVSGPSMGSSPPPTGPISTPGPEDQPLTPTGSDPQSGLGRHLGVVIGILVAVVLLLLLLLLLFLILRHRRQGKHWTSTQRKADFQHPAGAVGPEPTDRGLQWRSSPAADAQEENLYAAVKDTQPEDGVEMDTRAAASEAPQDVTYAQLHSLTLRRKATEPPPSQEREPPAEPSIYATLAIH
T5 sequence (A6NI73 42-299): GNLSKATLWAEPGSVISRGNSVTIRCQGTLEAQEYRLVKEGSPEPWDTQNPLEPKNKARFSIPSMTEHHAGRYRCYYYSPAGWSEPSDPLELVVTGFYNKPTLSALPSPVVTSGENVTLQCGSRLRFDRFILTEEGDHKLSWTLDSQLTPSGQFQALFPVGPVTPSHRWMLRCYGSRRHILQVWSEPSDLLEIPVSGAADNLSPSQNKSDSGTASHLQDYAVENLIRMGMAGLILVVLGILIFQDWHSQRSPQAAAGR
T8 sequence (P59901 24-499): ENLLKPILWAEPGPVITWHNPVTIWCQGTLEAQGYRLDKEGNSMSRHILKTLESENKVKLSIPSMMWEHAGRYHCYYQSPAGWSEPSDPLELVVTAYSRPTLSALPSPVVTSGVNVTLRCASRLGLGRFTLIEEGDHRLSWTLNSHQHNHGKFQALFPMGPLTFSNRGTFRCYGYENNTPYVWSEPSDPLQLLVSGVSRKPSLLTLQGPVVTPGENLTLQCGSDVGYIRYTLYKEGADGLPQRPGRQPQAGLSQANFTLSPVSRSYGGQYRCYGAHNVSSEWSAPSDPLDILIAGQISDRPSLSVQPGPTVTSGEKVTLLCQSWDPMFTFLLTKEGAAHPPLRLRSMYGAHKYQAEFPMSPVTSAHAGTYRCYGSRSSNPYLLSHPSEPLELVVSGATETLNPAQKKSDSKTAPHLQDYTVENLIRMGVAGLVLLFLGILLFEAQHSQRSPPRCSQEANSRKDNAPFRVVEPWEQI
T9 sequence (Q8NHL6 24-461 limits assumed): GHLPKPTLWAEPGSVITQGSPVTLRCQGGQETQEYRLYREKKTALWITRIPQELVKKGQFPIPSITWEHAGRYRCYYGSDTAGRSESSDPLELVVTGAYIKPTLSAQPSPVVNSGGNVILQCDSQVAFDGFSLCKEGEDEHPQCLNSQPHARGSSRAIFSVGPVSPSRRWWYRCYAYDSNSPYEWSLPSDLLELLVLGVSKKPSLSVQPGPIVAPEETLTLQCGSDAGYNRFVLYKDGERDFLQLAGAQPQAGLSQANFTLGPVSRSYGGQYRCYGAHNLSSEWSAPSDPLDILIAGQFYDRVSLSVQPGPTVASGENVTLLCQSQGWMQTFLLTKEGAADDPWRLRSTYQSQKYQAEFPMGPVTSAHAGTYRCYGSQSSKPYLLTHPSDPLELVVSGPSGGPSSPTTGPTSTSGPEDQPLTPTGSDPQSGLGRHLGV
T3 sequence (Q8N149 24-483): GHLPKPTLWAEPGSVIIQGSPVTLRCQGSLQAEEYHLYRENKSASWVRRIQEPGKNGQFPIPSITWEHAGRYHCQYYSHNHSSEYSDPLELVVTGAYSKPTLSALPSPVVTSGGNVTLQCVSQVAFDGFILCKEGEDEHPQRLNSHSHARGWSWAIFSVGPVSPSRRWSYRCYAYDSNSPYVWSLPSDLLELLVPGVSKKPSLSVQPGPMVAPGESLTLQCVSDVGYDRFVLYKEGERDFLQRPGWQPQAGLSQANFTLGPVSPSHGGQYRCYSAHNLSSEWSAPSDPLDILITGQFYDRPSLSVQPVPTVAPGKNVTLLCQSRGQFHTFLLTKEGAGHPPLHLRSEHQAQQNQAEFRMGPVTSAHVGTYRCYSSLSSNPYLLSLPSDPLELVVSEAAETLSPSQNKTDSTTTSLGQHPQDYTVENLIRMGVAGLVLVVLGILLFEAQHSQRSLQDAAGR
T4 sequence (Q8NHL6 24-650 limits assumed): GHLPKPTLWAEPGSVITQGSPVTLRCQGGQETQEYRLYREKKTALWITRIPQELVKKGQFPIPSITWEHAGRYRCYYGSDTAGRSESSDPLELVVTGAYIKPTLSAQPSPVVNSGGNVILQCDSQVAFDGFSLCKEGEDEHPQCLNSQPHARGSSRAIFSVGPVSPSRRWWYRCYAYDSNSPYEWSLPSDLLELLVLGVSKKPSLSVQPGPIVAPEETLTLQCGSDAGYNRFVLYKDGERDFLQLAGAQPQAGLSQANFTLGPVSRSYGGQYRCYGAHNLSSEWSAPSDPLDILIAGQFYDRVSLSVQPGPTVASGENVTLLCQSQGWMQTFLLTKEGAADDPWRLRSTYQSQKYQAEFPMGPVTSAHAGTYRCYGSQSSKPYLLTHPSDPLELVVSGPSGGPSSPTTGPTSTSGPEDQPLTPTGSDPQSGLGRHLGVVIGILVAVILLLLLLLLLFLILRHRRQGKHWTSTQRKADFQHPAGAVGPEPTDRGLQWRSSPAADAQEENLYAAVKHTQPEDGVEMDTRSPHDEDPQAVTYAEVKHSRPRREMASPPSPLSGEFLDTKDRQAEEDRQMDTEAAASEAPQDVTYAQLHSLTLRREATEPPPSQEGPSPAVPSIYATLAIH
T11 sequence (Q6PI73 24-481): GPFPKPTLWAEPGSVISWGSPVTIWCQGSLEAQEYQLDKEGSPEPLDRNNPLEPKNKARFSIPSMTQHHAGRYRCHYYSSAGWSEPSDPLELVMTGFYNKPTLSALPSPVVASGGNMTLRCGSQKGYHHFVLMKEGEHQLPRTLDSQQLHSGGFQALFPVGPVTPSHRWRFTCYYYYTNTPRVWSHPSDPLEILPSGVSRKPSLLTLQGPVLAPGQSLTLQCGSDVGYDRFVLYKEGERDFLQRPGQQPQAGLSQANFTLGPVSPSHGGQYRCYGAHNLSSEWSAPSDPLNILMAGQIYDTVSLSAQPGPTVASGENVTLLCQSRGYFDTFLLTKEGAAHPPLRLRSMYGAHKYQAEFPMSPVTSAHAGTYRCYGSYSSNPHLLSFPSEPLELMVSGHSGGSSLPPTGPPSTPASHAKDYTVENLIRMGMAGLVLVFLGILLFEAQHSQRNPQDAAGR
T14 sequence (Q8N149 24-449 limits assumed): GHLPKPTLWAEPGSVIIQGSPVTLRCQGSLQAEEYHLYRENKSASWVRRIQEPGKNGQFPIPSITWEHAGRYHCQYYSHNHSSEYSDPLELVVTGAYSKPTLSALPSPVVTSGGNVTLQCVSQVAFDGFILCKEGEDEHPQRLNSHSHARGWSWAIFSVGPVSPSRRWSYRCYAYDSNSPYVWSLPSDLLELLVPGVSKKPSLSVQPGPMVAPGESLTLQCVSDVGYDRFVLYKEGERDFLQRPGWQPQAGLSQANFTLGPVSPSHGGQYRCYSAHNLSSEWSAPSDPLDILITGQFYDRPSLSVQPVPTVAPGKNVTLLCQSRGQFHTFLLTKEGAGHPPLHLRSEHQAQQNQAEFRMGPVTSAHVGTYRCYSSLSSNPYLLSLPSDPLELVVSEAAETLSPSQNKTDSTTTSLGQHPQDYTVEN

B1: B1-176 rabbit antibody (antibody, V domains shown)
VH: QSLEESEGGLVKPGGTLTLTCTASGFSFSSSYCMCWVRQAPGKGLELIACIYTDSSGATYYASWAKGRFTISKSSSTTITLQMTSLTAADTATYFCARGWDYEDPGYTDTTYFSLWGPGTLVTVSS
VL: ELDLTQTPSSVEAAVGGTVTIKCQASQTIYTNLAWYQQKPGQPPNLLIYAASTLASGVSSRFKGSGSGTEFTLTISDLECADAATYYCQSYYGSSTTGNGFGGGTEVEIK
notes: Full-length rabbit IgG, kappa; Variable genes were cloned into a rabbit IgG expression vector and expressed in Expi293F cells
**Q.** Which results are given for B1?
**A.** percent of cells in the gate [1]: 0.676%; percent of cells in the gate [2]: 0.124%; percent of cells in the gate [3]: 0.11%; percent of cells in the gate [4]: 99.2%; percent of cells in the gate [5]: 0.101%; percent of cells in the gate [6]: 0.0698%; percent of cells in the gate [7]: 0.29%; percent of cells in the gate [8]: 0.0736%; Kd [9]: ~0.01 nM; percent of cells in the gate [10]: 0.18%; percent of cells in the gate [11]: 0.68%; percent of cells in the gate [12]: 0.12%; percent of cells in the gate [13]: 0.12%; percent of cells in the gate [14]: 0.1%; percent of cells in the gate [15]: 0.11%; percent of cells in the gate [16]: 99%; percent of cells in the gate [17]: 0.1%; percent of cells in the gate [18]: 0.07%; percent of cells in the gate [19]: 0.29%; percent of cells in the gate [20]: 0.074%; binding result [21]: no binding (tested: 10^3.0 ng/mL (1000 ng/mL)); binding result [22]: no binding (tested: 10^3.0 ng/mL (1000 ng/mL)); binding result [23]: no binding (tested: 10^3.0 ng/mL (1000 ng/mL)); binding result [24]: no binding (tested: 10^3.0 ng/mL (1000 ng/mL)); binding result [25]: no binding (tested: 10^3.0 ng/mL (1000 ng/mL)); binding result [26]: no binding (tested: 10^3.0 ng/mL (1000 ng/mL)); Kd [27]: < 0.01 nM
